Consider one protein from patent publication US20190085039A1 (OSAKA UNIVERSITY, published 2019).

This data set concerns the molecule itself. In words: size exclusion gel filtration chromatography (Superdex 200 10/30, 20 mM HEPES pH 7.4, 150 mM NaCl); no self-association, elutes as a monomer. As to the method: The solvent is 20 mM HEPES solution of pH 7.4 containing 150 mM NaCl. The larger the molecular weight/molecular volume, the faster the flow in the column. Therefore, peaks appear on the left side in the figure. The spectra indicated with dotted lines in FIG. 1 show the absorptions of 10 μM DsRed (tetramer), tdTomato (dimer), and mCherry (monomer) in order from the left. […] Since the peak position of mfGFP is almost the same as that of mCherry, it can be said that
A general note: Size exclusion chromatography separates by hydrodynamic size, large species first.

B1: monomeric green-yellow fluorescent protein mfGFP (other)
chain: MVSKGEEASGRALFQYPMTSKIELNGEINGKKFKVAGEGFTPSSGRFNMHAYCTTGDLPMSWVVIASPLQYGFHMFAHYPEDITHFFQECFPGSYTLDRTLRMEGDGTLTTHHEYSLEDGCVTSKTTLNASGFDPKGATMTKSFVKQLPNEVKITPHGPNGIRLTSTVLYLKEDGTIQIGTQDCIVTPVGGRKVTQPKAHFLHTQIIQKKDPNDTRDHIVQTELAVAGNLWHGMDELYK
notes: It was purified with an N-terminal polyhistidine tag; not shown: N-terminal polyhistidine tag from the bacterial expression vector pRSETB
In the case of B1, the binding result is reported as “no binding (tested: 10 µM)”.
